{"source": "patent US9359418B2", "about": "“Inhibitors of the T cell-specific alternative p38 activation pathway and methods of use” (The United States of America, as represented by the …, priority 2012, dated 2016)", "biological_target": "recombinant p38α (Homo sapiens, UniProt Q16539)", "sequence (Q16539 whole entry, the tested form may be a part)": "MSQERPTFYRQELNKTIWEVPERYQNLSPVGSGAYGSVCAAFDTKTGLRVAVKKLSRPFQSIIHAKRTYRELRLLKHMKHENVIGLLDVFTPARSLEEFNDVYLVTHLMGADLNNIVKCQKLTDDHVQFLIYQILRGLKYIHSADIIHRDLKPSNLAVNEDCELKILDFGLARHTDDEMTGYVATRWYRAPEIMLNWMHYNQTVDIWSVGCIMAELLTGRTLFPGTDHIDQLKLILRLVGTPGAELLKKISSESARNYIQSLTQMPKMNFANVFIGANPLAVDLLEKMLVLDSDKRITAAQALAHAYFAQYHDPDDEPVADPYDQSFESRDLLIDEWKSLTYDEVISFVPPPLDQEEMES", "test": "GST pull-down of recombinant p38α by truncated Gadd45α portions", "format": "binding", "conditions": "Gadd45α portions fused to GST, in vitro", "from_the_text": "This example describes a Gadd45α 71-85 polypeptide fused to a cell-penetrating peptide (11R) and its ability to block the T cell-specific alternative p38 activation pathway. The minimal region of Gadd45α capable of binding to p38 was identified by fusing various truncated portions of Gadd45α to GST and using the product to pull down recombinant p38α in vitro.", "note": "No end group written: not given here."}
{"substance": "71-85 fragment: residues 71-85 of Gadd45α fused to GST, used to pull down recombinant p38α (LQIHFTLIQAFCCEN; cysteine pairing not given here; also: fused to GST; UniProt P24522 71-85, looked up, fragment)", "values": [{"measurement": "pull down of recombinant p38α", "result": "pulled down p38α as well as the full length protein"}]}
